Reference: US20120225464A1, “Specific Arabinose Transporter of the Plant Arabidopsis Thaliana for the Construction of Pentose-Fermenting Yeasts” (priority 2011, published 2012)

T1: Gal2 (Saccharomyces cerevisiae, UniProt P13181)
T1 construct: expressed in transfected cells; host or cells: S. cerevisiae strain MKY06 (all hexose transporters incl. gal2 deleted)
T1 sequence (P13181 1-574): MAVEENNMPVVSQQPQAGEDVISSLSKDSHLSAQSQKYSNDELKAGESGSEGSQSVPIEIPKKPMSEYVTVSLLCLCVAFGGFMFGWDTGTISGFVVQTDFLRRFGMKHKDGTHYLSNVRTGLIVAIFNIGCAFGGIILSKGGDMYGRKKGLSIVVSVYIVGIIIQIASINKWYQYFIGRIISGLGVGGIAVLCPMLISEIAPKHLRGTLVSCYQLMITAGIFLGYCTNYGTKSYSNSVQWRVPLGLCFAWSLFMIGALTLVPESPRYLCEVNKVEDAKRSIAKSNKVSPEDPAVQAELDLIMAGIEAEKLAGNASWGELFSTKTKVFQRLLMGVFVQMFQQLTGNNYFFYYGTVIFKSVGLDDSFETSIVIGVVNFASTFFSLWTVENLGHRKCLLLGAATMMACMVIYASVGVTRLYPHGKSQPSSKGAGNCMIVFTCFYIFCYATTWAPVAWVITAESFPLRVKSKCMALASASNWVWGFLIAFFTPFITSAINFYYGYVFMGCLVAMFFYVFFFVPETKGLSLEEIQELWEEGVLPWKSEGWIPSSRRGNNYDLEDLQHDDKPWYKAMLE

T2: Stp2 (Arabidopsis thaliana, UniProt Q9LNV3)
T2 construct: The open reading frame (ORF) of AtStp2 was amplified and cloned behind the shortened strong HXT7 promoter; expressed in transfected cells; host or cells: S. cerevisiae strain MKY06 (all hexose transporters deleted), plasmid pTHStp2
T2 sequence (Q9LNV3 1-498): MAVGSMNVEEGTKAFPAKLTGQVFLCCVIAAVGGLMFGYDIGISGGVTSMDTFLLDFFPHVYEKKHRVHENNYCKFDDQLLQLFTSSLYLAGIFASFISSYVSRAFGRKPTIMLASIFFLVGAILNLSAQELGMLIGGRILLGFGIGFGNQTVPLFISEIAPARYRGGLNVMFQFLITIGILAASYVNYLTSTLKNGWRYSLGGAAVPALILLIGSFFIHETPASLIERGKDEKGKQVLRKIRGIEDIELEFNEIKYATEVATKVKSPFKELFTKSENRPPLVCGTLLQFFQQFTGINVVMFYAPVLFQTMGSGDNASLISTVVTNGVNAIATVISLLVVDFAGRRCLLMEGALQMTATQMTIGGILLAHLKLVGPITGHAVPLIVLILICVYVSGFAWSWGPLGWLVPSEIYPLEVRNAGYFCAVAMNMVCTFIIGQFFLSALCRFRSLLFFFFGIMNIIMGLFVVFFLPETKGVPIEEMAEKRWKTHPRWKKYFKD

B1: Gal2: S. cerevisiae galactose permease Gal2, known to also transport L-arabinose (protein, UniProt P13181 1-574, looked up)
Galactose transporter: T1 sequence (P13181 1-574)
B2: Stp2: transporter Stp2 from Arabidopsis thaliana, a protein of 498 amino acids (SEQ ID NO. 1) (protein, listed as Arabidopsis thaliana)
chain: T2 sequence (Q9LNV3 1-498)

Columns and labels:
Type in all cases: cell-based, S. cerevisiae
Gal2 = target: T1, Gal2; assay: Inhibition of Gal2-mediated L-arabinose uptake by added sugar; details: addition of 10 mM of the sugar
Procedure: (§1) The initial rates of sugar uptake were measured as follows: a 50-0 aliquot of a sugar solution containing (1-^3H)-labeled L-arabinose, (U-^14C) labeled O-glucose (American Radiolabeled Chemicals Inc.) or (1-^14C) labeled D-galactose (Amersham) was incubated at 30° C. and was mixed with 100 μl of yeast suspensions having the same temperature, resulting in final sugar concentrations of 10 mM L-arabinose, D-glucose and D-galactose. For determination of L-arabinose uptake kinetics 0.1, 1, 5, 10, and 50 mM L-arabinose were used. After different time intervals 10 ml of ice-cold 100 mM potassium phosphate buffer at pH 6.5 with 500 mM. D-glucose was added, and the suspension was immediately filtrated using Durapore® membrane filters (0.22 μm pore size, Millipore). The filter was washed two times with 10 ml of cold potassium phosphate buffer with 500 mM D-glucose. […] Rotiszint® eco plus (Roth) and the radioactivity measured in a scintillation counter. Uptake of radioactivity was nearly linear in time intervals up to 2 minutes. […] Dry weight was determined by filtering 10 ml of the culture through a pre-weighted nitrocellulose filter (0.45 μm pore size; Roth, Germany). […] KM and vmax values were calculated using the program GraphPad Prism 5.0.
(§2) For L-arabinose, uptake kinetics were determined by measuring L-arabinose uptake at various concentrations between 0.1 and 50 mM during 2-minute time intervals. […]

Stp2 = target: T2, Stp2; assay: Inhibition of Stp2-mediated L-arabinose uptake by added sugar; details: addition of 10 mM of the sugar
Procedure: as §1, §2

strain MKY06-3P = assay: Sugar consumption / fermentation analysis by HPLC in SC medium under aerobic conditions; details: transporter overexpressed
Procedure: (§3) Fermentation analysis of the MKY06-3P containing the plasmids p426-opt-AraT-S (A) or pTHSTp2 (B) in SC medium with 2% glucose under aerobic conditions. As controls the strain MKY06-3P was used containing the plasmids pHL125^re (positive) or p426HXT7-6HIS (negative). The strains with the various plasmids were adducted in SC medium with 2% glucose and inoculated with an OD600nm=1 in 50 ml SC medium. The incubation took place in 300 ml shaking flasks under aerobic conditions at 30° C. Samples were taken several times during the 120 hours to determine the sugar concentration via HPLC analysis.
as §3, with “arabinose” for “glucose”, “analysis. […]” for “analysis.”
The samples taken in the tests were centrifuged for 10 min at 3000 R/min, in order to pellet the yeast cells. […] The sugar concentrations were measured by means of BioLC (Dionex). […]

[1] = test system: D-glucose uptake, strain MKY06; assay: Initial rate of D-glucose uptake with radioactively labeled sugar in strain MKY06 overexpressing the transporter; details: 10 mM D-glucose, 1 minute; empty-vector background subtracted
Procedure: Initial rates of sugar uptake of strain MKY06 expressing Stp2 (AtStp2) or Gal2 (ScGal2). Cells were grown on D-galactose or maltose (empty vector), harvested and incubated with the radioactively labeled sugars: 10 mM L-arabinose (A), 10 mM D-galactose (B) and 10 mM D-glucose (C) for 2 minutes (L-arabinose) or 1 minute (D-galactose, D-glucose). The background values determined with cells containing the empty vector were subtracted.
as §1, with “used.” for “used. After different time intervals 10 ml of ice-cold 100 mM potassium phosphate buffer at pH 6.5 with 500 mM. D-glucose was added, and the suspension was immediately filtrated using Durapore® membrane filters (0.22 μm pore size, Millipore). The filter was washed two times with 10 ml of cold potassium phosphate buffer with 500 mM D-glucose.”, “5.0. […]” for “5.0.”

[2] = test system: L-arabinose uptake, strain MKY06; assay: L-arabinose uptake kinetics with radioactively labeled sugar in strain MKY06 overexpressing the transporter; details: L-arabinose as the substrate; 0.1-50 mM, 2-minute intervals
Procedure: The initial rates of sugar uptake were measured as follows: a 50-0 aliquot of a sugar solution containing (1-^3H)-labeled L-arabinose, (U-^14C) labeled O-glucose (American Radiolabeled Chemicals Inc.) or (1-^14C) labeled D-galactose (Amersham) was incubated at 30° C. and was mixed with 100 μl of yeast suspensions having the same temperature, resulting in final sugar concentrations of 10 mM L-arabinose, D-glucose and D-galactose. For determination of L-arabinose uptake kinetics 0.1, 1, 5, 10, and 50 mM L-arabinose were used. After different time intervals 10 ml of ice-cold 100 mM potassium phosphate buffer at pH 6.5 with 500 mM. D-glucose was added, and the suspension was immediately filtrated using Durapore® membrane filters (0.22 μm pore size, Millipore). The filter was washed two times with 10 ml of cold potassium phosphate buffer with 500 mM D-glucose. Filters were transferred to 5 ml scintillation vials containing 4.5 ml. Rotiszint® eco plus (Roth) and the radioactivity measured in a scintillation counter. Uptake of radioactivity was nearly linear in time intervals up to 2 minutes. The results shown are average values for two to three independent experiments. Dry weight was determined by filtering 10 ml of the culture through a pre-weighted nitrocellulose filter (0.45 μm pore size; Roth, Germany). The filters were washed with demineralized water, dried in a microwave oven for 20 minutes at 140 W, and weighted again. KM and vmax values were calculated using the program GraphPad Prism 5.0.
For L-arabinose, uptake kinetics were determined by measuring L-arabinose uptake at various concentrations between 0.1 and 50 mM during 2-minute time intervals. While Gal2 turned out to transport L-arabinose with low affinity and high capacity, Stp2 mediated uptake of L-arabinose with low capacity but high affinity (Table 1).

Molecule | Inhibition of L-arabinose uptake (Gal2) (Gal2) | Inhibition of L-arabinose uptake (Stp2) (Stp2) | Glucose transport in the strain MKY06-3P (strain MKY06-3P) | D-glucose uptake rate [1] [nmol/min/mg DM] | Km [2] [mM] | vmax [2]
O=C[C@H](O)[C@@H](O)[C@@H](O)[C@H](O)CO [D-galactose] | nearly completely inhibited | nearly completely inhibited |  |  |  | 
O=C[C@H](O)[C@@H](O)[C@H](O)[C@H](O)CO [D-glucose] | nearly completely inhibited | nearly completely inhibited |  |  |  | 
AraT |  |  | small amounts of glucose |  |  | 
B1 |  |  |  | 4.7 | 57 | 2.2 +/− 0.26 nmol/min/mg DM
B2 |  |  |  | < 0.01 | 4.5 | 0.6 +/− 0.08 nmol/min/mg DM
